According to the DeepSol protein solubility set:

Assay: soluble on expression in E. coli; label from the status in PepcDB or PDB records

Row | Sequence | soluble on expression in E. coli
1 | MGSDKIHHHHHHMKHSDYSLIPTFVAIVEEKSYTKAAKRLGISQSAVSQGVTRLQAVFKDTLFIRGSRGVEPTQFSLDIYPTLASSVENIAFMMPEYKKFSAVKCEKQFVISSLSVFGFTILPPLSALMSQHAPLASVKIEPLNNHDFTNMLRSQHFDLVIDAHSNQYPQLRSKVIMEDTLCVMCRIDHPRLSGDSISIDEFLAEKHVTHSQLDQKGGYLSGKGLKEDEILNQRKIAWQAASIMEMLPVIECCDYIALLPQRLVDKYRHIYQLKQLHSNFLLDPIKVAMYWHSSRTNDPSHKWLREQIVKVTQQFNKL | not soluble
2 | MGSDKIHHHHHHMKIAIITFFDNGNYGSELQTLAMNDYLNAKGHVTVFCKVKSSNKIIRAIELLYDKVLLKWYKITDKEKRQYLTDRAKNLSSQRNIPPKLRQYIHSFVNSHISFGCISRLLLFRKERFDAYICGSDQIWSALKMPLLPLNFLYGIDKKKKIAYAPSIGLDNPPYYYIREVEKYVKDFIYLSVREEDAKNVLKKQYGIEAMQVLDPTLLQGKGFWDSLLAIESKQVPTKPYVFCYFLGKLNEDIVTCINRIANGKCVMVLPYEEDCDLIKNGKYELADPLDFVNLIKHADYVLTDSFHGSIFSILYDKQFVVTKRTHVRRVSQTSRITSLLKIFNLQSQYCSGVDEIINALQNNIDYSFTHIQLEEEQRKSRLFLDGALNEIEKNIKS | not soluble
3 | MGSDKIHHHHHHMKIAILTTNQAADDSRLVATARKKGHSANLLDLRQMSIALRPSVADIYYQNELITHHFDAIIPRLNVSYTDYGINLLQQFICSNTYVSESPEALRLGRDKLKCLQHLLSKGLPFPTTAIAYTPDFFNAIMQQLQLPLVVKLIESTEGTGVFLARTHKEVDNLCKTFSLAGVSYLIQEFIAEAAGHDVRAFVVGNRVVAAMQRDSQDDDFRANVSLGAHSSAVTLSADEQELVLKATQSIGVHVAGVDFVRSNRGPLLLEINVSPDFTGEQGIEAITLRDVAADIIDYTVQHAEAFYQGRSKY | not soluble
4 | MGSDKIHHHHHHMKIALIQPKMNKRPMDTDLKTRMSPPLSLLTLMGLTPEGHEVIMVNENVEKIDYACGAELVGITITLDVMPRAVEIAEEFHRLGIPVVAGGIHVTSSPDECRGYFDAICIGAAERVWERMIEDAEESRLQQVYHDMTDFRGEEIASPAYHRIDKNRYLYTNIMTTSRGCPNRCGFCYNSCRNRMYIRRPVTDVLRDIEGLGTRHILFIDDNFIGVPAYTRELLNHLRGRELKWSAAVTTKIADYPDVLDLMAETGCQSLFIGFESINNSSLHGVNKDNQFEKYERIVTAIHSRGIMINASMVFGLDGDEPDVFQRTLDWLVKNKIETLTSHILTPYPGTELHGRMKEEGRILDHELSRYNTAHVVFQPKGMTAEELYKGYLWIYREFYSFPNIWRRRPEHKAQRKSFFLFNILYRKFGGLTSVLARIIPMRTVGRLAARISYRVK | not soluble
5 | MGSDKIHHHHHHMKIAVVGLGNIGFNLFSYINKKYPNSVVGVDIDAGRVNDLRSQGYRVTTDYRALTGIDIWLLAPSTGDQGENLFAALGEMIICPGALISIESTLPPGTMELVRKYLEGKGYRCGQDVYLIHVPHRVMFGVDETVCDTPRVMGAFTQACRDKGRQFYEPLVPQLVEVEDVRIAELSKVVENVKRYVDVAFAQELYQYCKDQGMDFAELRKAVNSKSNVELLGTDWGIGGECLPKDMRFLRKVCPSPLLEGAAIADQEYRDRILQQVGTHQNVLIKGLSYKAGVKDLKHSRGVDLVRALEEAGNTVWVVDPLFTPEELEAAGFKTVEKFDEADLQGWIVLEREKALK | not soluble
6 | MGSDKIHHHHHHMKIDRSVIRSLALFAKMADDELDGLLTHATSRLVPPGEAIFEQGQSAAHFFLLIHGRLKVTQVTHDGQQIIVRMVHPGDLFGFARALQRSDYPGTATTAAESVILSWQTDLWPQFVEQNPHLAVSAMQTIGQRLEEAHTRIREMSTQEVERRVAHAVLRLSQQAGRKELDGIRIDFPISRQDIAEMTGTTLHTVSRILSSWESKGLVQGGRQKLLVCNLPGLAQLAEGETSQV | not soluble
7 | MGSDKIHHHHHHMKIGTYQRLKAIKFLDFGVYLLEELTQEEVLLPKRYVPEGLEMGAMLEVFLYTDSEDRPVATTLKPKAILGEVAALEVVSVSERGCYLDLGIAKDIFMPCKNPYSFHEGQKVVVRLDLDKEKRLIARIGVKNYLQNAPVTLRPFTEVEILPFEWSTLGYGCMVNGRYFGMLFNNETFEKLPLGEARKGYIKAVRPDGKIDLSLRKSQGAGGLKEELEKLMKALQSAGGKLELHYDSDPDEISKITGLSKKGFKRALGEAIRSQKVELVAGKGIEQIR | not soluble
8 | MGSDKIHHHHHHMKILLYLEAEQFLSHSGIGRAMKHQQRALDLMGIDWTKNPEDDYDILHLNTYGFSSWKMLKKAKKAGKKVIFHGHSTKEDFQNSFIGSNIAAPFFKQYLMHFYRAADLVITPTDYSASLLRSYGIKCPILPISNGIDLTKYSRSEAKEQAFREYFSLKSDQKVVVTAALYFKRKGIDDFIKVAERMPDVTFIWFGYQNLWTIPGWIRRIVKKNHPKNVLFPGYIKGDIFEGAMSSADAFFFPSREETEGIVVLEALASHQKTVVRDIPVYHGWLDSTCVSMATDVEGFVNQLQDVLDGKVDKTKEAYQVAESRTIEKVAQQLADAYQQTLEL | not soluble
9 | MGSDKIHHHHHHMKINRLTEIIVILLNKKLVTAKELADRFEVSTRTIYRDIETLSMSGVPVYMTKGKGGGISLIEEYSIDKAILSKKDKESLIVALKTLQATKYPEINSVVNKIGSIFGEQNFSNWIEIDFTEWGSNFNEDDKFTKIKEAILRRNTINFNYVNSLSSQTNRTVEPLKLMYKSKTWYLYGFCKLKDDFRIFRISRIRNLSIKDEVFSRKIIEEVCLNDSKVIKENTITLKLRFKEKMLFRVFDDFNKDLITKNEDDTYDVITEFPIGEWIYGYILSFGDNVEVLEPKDVRDNVITRLRELSKIYSL | not soluble
10 | MGSDKIHHHHHHMKISNISYFNFRNLENTSIDLSDKINVFYGKNAQGKTSLLEAIYYSSTGISFKTKKTSEMIKYNFDEFISSISYQDYIANNKISVRFKNIAGAKKEFFFNKKRISQTDFYGKINIIAYIPEDIILINGSPKHRRDFFDIEISQIDKEYLTNLKNYDKLLKIRNKYLKENKRNSEEFAIYEKEFIKYASYIIFTRIEYVKSLSIILNLQYRKLFNIAQELNLRYETSLDKTAKVTIEMIQESLKREISQKKYQEDKYKFSLVGPHKDDYKFLLNGHEAKISASQGEKKSIIFSLKLSEIEIIKKNRKENPVVIIDDITSYFDEDRRKSILDFFNKRDIQVLISSTDKLDIEAKNFYVEKGIIKDESNINK | not soluble
11 | MGSDKIHHHHHHMKISVSKNDLENALRYLQAFLDKKDASSIASHIHLEVIKEKLFLKASDSDIGLKSYIFTQSSDKEGVGTINGKKFLDIISCLKDSNIILETKDDSLAIKQNKSSFKLPMFDADEFPEFPVIDPKVSIEVNAPFLVDAFKKIAPVIEQTSHKRELAGILMQFDQKHQTLSVVGTDTKRLSYTQLEKISIHSTEEDISCILPKRALLEILKLFYENFSFKSDGMLAVIENEMHTFFTKLIDGNYPDYQKILPKEYISSFTLGKEEFKESIKLCSSLSSTIKLTLEKNNALFESLDSEHSETAKTSVEIEKGLDIEKAFHLGVNAKFFLEALNALGTTQFVLRCNEPSSPFLIQESLDEKQSHLNAKISTLMMPITL | not soluble
12 | MGSDKIHHHHHHMKKAIGILCYPSVGGSGVVATELGMKLADRGHDVHFITSSIPFRLTEYRPNITVHLVEVNQYSVFKYPPYDITLASKVAEVIDLFDLDIIHAHYAVPHAVCAELGRNMAKKKGVGVVTTLHGTDITVIGQDLEMQPAIRYGIESSDAVTAVSESLALETNITLNGQYAIEVIPNSIDESMYYPMRDERLKRHYGIEPDEIVVIHISNFRPVKRIDDTIAAFAIASKDRAMRLLLVGDGPEMGQTRRRAKELGIYDKIIFAGKQEHVAQLLAISDIHLLLSEKEAFGLVVLEAMAVGVPSVVSSAGGLPEVIQDGKTGFIVPTYDVKTAADRIGKLADDAALREELAEEGIRDTRRRFDSNQVVRAYELLYERVCAQYENA | not soluble
13 | MGSDKIHHHHHHMKKLLNTLYVTSENSYLGLDGENVVVYDDKNEIGRLPLHNLEAIISFGYRGTSPALMGACADRNISLCYLTPQGKFLARVSGKVKGNVVLRKQQFQSSSEDIKCLEIAKNCILGKVYNSRWVLERAIRDHSMQIDVDKVKKASIKLKEFLDYIQNSQSMNQLRGYEGEAASIYFGVFDELILQQKKDFFFQGRNRRPPLDNVNAMLSFTYTLLTTQITSALEVVGLDPYVGYMHTERPGRVSLSLDLIEELRAVMADRFVLSLINKKIVNGKSFTKKENGAVLMDTDIRKKLLSEWQNKKKEIITHPYLNEKVEWGMVPFVQAMLLARYLRGDLDEYPVFLWK | not soluble
